US20020123082A1

Molecular target: human p27, wild type (human) (UniProt P46527)
Experiment: cell-based or functional assay

Sequence of human p27, wild type (human) (P46527 whole entry): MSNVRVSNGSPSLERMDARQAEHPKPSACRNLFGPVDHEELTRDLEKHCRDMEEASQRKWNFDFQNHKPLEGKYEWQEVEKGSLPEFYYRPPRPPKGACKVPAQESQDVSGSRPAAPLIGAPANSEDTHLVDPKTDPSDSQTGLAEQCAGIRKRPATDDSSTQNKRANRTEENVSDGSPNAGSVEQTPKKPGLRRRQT

- p27 half-life, pulse chase analysis in NIH-3T3 cells: 3 h
Substance: (ΔF)Skp2, F-box deleted Skp2 mutant lacking residues 113-152 (from UniProt Q13309 1-112; Q13309 141-424)
